Data as given in paper PMC9931023 (Journal of Food and Drug Analysis, 2021).

Molecular target: p27 (Kip1), endogenous in breast tissue (human (endogenous in breast tissue …, UniProt P46527 1-198))
Assay: FRET or BRET

Sequence of p27 (Kip1), endogenous in breast tissue (human (P46527 whole entry): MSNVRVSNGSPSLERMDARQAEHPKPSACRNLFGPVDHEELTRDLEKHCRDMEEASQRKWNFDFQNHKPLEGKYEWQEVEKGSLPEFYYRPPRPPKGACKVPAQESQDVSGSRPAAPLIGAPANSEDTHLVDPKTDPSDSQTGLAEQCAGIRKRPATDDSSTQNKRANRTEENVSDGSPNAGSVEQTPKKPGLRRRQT

B1: salt-induced kinase-3 (SIK3), endogenous in breast tissue (enzyme, UniProt Q9Y2K2-5 1-1321, looked up)
chain: MAAAAASGAGGAAGAGTGGAGPAGRLLPPPAPGSPAAPAAVSPAAGQPRPPAPASRGPMPARIGYYEIDRTIGKGNFAVVKRATHLVTKAKVAIKIIDKTQLDEENLKKIFREVQIMKMLCHPHIIRLYQVMETERMIYLVTEYASGGEIFDHLVAHGRMAEKEARRKFKQIVTAVYFCHCRNIVHRDLKAENLLLDANLNIKIADFGFSNLFTPGQLLKTWCGSPPYAAPELFEGKEYDGPKVDIWSLGVVLYVLVCGALPFDGSTLQNLRARVLSGKFRIPFFMSTECEHLIRHMLVLDPNKRLSMEQICKHKWMKLGDADPNFDRLIAECQQLKEERQVDPLNEDVLLAMEDMGLDKEQTLQSLRSDAYDHYSAIYSLLCDRHKRHKTLRLGALPSMPRALAFQAPVNIQAEQAGTAMNISVPQVQLINPENQIVEPDGTLNLDSDEGEEPSPEALVRYLSMRRHTVGVADPRTEVMEDLQKLLPGFPGVNPQAPFLQVAPNVNFMHNLLPMQNLQPTGQLEYKEQSLLQPPTLQLLNGMGPLGRRASDGGANIQLHAQQLLKRPRGPSPLVTMTPAVPAVTPVDEESSDGEPDQEAVQSSTYKDSNTLHLPTERFSPVRRFSDGAASIQAFKAHLEKMGNNSSIKQLQQECEQLQKMYGGQIDERTLEKTQQQHMLYQQEQHHQILQQQIQDSICPPQPSPPLQAACENQPALLTHQLQRLRIQPSSPPPNHPNNHLFRQPSNSPPPMSSAMIQPHGAASSSQFQGLPSRSAIFQQQPENCSSPPNVALTCLGMQQPAQSQQVTIQVQEPVDMLSNMPGTAAGSSGRGISISPSAGQMQMQHRTNLMATLSYGHRPLSKQLSADSAEAHSLNVNRFSPANYDQAHLHPHLFSDQSRGSPSSYSPSTGVGFSPTQALKVPPLDQFPTFPPSAHQQPPHYTTSALQQALLSPTPPDYTRHQQVPHILQGLLSPRHSLTGHSDIRLPPTEFAQLIKRQQQQRQQQQQQQQQQEYQELFRHMNQGDAGSLAPSLGGQSMTERQALSYQNADSYHHHTSPQHLLQIRAQECVSQASSPTPPHGYAHQPALMHSESMEEDCSCEGAKDGFQDSKSSSTLTKGCHDSPLLLSTGGPGDPESLLGTVSHAQELGIHPYGHQPTAAFSKNKVPSREPVIGNCMDRSSPGQAVELPDHNGLGYPARPSVHEHHRPRALQRHHTIQNSDDAYVQLDNLPGMSLVAGKALSSARMSDAVLSQSSLMGSQQFQDGENEECGASLGGHEHPDLSDGSQHLNSSCYPSTCITDILLSYKHPEVSFSMEQAGV
For B1, the “FRET activity (fold)” value was 25.2 fold.
